Values of other authors in patent EP1600162A1, “Shelf-stable formulation of glucagon-like peptide-1” (Eli Lilly & Company, priority 1998, dated 2005).

Conditions: stored at 4° C

## GLP-1(7-37): GLP-1 molecule affected by dipeptidyl-peptidase IV; background peptide
  time after sample preparation at which by-products have been found: eleven
